Measured values as given in IntAct's records for PubMed 11782428.

B1: Tyrosine-protein kinase Lyn (Homo sapiens), P07948 (parent)
chain: MGCIKSKGKDSLSDDGVDLKTQPVRNTERTIYVRDPTSNKQQRPVPESQLLPGQRFQTKDPEEQGDIVVALYPYDGIHPDDLSFKKGEKMKVLEEHGEWWKAKSLLTKKEGFIPSNYVAKLNTLETEEWFFKDITRKDAERQLLAPGNSAGAFLIRESETLKGSFSLSVRDFDPVHGDVIKHYKIRSLDNGGYYISPRITFPCISDMIKHYQKQADGLCRRLEKACISPKPQKPWDKDAWEIPRESIKLVKRLGAGQFGEVWMGYYNNSTKVAVKTLKPGTMSVQAFLEEANLMKTLQHDKLVRLYAVVTREEPIYIITEYMAKGSLLDFLKSDEGGKVLLPKLIDFSAQIAEGMAYIERKNYIHRDLRAANVLVSESLMCKIADFGLARVIEDNEYTAREGAKFPIKWTAPEAINFGCFTIKSDVWSFGILLYEIVTYGKIPYPGRTNADVMTALSQGYRMPRVENCPDELYDIMKMCWKEKAEERPTFDYLQSVLDDFYTATEGQYQQQP
partner: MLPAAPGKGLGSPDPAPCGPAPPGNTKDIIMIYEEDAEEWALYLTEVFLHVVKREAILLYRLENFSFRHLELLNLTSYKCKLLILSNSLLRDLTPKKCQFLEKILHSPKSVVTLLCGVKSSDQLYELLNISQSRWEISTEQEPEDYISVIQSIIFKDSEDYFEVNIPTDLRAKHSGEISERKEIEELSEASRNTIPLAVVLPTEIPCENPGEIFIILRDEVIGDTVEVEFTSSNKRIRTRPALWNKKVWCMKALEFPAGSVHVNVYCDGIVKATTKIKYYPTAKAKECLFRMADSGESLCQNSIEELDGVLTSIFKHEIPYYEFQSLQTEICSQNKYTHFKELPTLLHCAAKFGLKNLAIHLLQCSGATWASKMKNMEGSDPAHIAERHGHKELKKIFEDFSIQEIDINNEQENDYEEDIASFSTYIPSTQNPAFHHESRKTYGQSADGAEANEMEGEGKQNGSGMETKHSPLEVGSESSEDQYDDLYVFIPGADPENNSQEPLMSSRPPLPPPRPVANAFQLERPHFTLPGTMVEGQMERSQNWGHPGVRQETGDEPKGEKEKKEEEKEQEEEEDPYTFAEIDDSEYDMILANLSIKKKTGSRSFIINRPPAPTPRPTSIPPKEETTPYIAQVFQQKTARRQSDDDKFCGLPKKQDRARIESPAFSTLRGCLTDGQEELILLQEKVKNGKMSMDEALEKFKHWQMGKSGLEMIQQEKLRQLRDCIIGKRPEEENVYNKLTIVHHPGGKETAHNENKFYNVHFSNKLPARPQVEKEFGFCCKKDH

Variants of: B1
Details: with bank1_human BANK1, Q8NDB2

Q: With R156D;S158F as the variant, how does the “effect of a mutation on the interaction” value read?
A: with no effect

Q: Which “effect of a mutation on the interaction” value does the source give for K275L here?
A: decreasing interaction strength

Q: How did the “effect of a mutation on the interaction” value turn out when P114L was run?
A: with no effect

Q: Which “effect of a mutation on the interaction” value does the source give for Y508F here?
A: with no effect
